{
  "source": "patent CN115947850A",
  "about": "(BEIJING DONGFANG BIOTECH CO LTD, dated 2023)",
  "key": {"[1]": {"molecular_target": "T1, human LILRB4 extracellular domain (LILRB4抗原, LILRB4蛋白胞外段) (human, UniProt Q8NHJ6 22-259)", "T1 construct": "extracellular domain; also called 人LILRB4", "assay": "ELISA, coated LILRB4 100 ng/well, goat anti-mouse IgG-HRP detection"}, "LILRA5": {"molecular_target": "LILRA5 (UniProt A6NI73 42-268, limits assumed)", "sequence (A6NI73 42-268 limits assumed)": "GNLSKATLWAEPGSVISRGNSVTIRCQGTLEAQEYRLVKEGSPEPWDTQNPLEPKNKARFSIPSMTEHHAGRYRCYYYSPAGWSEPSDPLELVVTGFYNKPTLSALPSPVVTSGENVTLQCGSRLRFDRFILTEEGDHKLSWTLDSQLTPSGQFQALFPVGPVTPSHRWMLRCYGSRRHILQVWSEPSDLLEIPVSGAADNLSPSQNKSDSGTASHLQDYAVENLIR", "assay": "ELISA, coated LILR protein 100 ng/well"}, "LILRA6": {"molecular_target": "LILRA6 (UniProt Q6PI73 24-447, limits assumed)", "sequence (Q6PI73 24-447 limits assumed)": "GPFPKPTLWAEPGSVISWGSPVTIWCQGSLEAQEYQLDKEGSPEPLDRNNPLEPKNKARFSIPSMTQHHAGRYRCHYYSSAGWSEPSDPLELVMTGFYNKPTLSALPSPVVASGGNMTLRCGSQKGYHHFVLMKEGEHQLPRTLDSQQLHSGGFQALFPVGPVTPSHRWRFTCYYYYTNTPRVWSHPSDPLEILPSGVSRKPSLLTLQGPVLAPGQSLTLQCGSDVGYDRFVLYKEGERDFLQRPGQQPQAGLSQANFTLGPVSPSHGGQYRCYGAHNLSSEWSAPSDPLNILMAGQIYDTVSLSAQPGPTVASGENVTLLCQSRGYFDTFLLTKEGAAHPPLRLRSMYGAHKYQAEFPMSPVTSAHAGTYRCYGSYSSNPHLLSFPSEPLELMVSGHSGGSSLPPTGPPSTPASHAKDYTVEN", "assay": "ELISA, coated LILR protein 100 ng/well"}, "LILRB1": {"molecular_target": "LILRB1 (UniProt Q8NHL6 24-461, limits assumed)", "sequence (Q8NHL6 24-461 limits assumed)": "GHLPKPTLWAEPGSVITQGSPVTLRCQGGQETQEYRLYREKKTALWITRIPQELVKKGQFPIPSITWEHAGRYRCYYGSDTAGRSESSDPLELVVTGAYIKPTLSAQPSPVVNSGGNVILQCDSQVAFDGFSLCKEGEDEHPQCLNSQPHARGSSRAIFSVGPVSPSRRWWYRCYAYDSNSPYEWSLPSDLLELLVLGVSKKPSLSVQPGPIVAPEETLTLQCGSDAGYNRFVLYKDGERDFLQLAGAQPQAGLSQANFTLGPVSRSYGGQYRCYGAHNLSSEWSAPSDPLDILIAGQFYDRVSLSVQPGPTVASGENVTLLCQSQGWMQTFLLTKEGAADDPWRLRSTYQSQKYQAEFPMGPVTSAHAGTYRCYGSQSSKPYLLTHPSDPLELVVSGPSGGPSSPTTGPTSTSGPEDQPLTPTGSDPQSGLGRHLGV", "assay": "ELISA, coated LILR protein 100 ng/well"}, "LILRA4": {"molecular_target": "LILRA4 (UniProt P59901 24-446, limits assumed)", "sequence (P59901 24-446 limits assumed)": "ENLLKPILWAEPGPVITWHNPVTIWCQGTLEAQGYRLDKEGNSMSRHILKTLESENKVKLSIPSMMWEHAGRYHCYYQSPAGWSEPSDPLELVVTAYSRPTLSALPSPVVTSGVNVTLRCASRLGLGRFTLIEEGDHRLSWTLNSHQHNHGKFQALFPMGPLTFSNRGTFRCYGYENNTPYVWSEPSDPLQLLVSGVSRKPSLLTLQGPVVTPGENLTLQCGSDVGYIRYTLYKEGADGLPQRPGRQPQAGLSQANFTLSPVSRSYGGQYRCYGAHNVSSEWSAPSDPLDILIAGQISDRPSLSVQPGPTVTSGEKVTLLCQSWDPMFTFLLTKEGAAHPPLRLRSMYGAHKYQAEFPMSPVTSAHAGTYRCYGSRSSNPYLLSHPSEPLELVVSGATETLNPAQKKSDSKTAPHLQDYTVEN", "assay": "ELISA, coated LILR protein 100 ng/well"}, "LILRB3": {"molecular_target": "LILRB3 (UniProt O75022 24-443, limits assumed)", "sequence (O75022 24-443 limits assumed)": "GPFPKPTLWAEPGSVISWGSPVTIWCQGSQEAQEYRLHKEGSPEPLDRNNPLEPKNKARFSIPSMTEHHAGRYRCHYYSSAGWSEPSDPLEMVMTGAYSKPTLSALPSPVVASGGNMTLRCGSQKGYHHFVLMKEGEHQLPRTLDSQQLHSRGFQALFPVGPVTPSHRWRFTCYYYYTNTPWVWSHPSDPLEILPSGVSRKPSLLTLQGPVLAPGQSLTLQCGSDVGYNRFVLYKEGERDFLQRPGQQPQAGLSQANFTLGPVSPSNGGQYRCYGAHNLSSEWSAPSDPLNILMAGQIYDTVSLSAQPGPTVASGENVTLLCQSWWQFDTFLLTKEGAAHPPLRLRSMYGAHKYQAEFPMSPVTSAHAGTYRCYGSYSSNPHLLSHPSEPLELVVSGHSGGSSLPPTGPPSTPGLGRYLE", "assay": "ELISA, coated LILR protein 100 ng/well"}, "LILRA3": {"molecular_target": "LILRA3 (UniProt Q8N6C8 24-439)", "sequence (Q8N6C8 24-439 limits assumed)": "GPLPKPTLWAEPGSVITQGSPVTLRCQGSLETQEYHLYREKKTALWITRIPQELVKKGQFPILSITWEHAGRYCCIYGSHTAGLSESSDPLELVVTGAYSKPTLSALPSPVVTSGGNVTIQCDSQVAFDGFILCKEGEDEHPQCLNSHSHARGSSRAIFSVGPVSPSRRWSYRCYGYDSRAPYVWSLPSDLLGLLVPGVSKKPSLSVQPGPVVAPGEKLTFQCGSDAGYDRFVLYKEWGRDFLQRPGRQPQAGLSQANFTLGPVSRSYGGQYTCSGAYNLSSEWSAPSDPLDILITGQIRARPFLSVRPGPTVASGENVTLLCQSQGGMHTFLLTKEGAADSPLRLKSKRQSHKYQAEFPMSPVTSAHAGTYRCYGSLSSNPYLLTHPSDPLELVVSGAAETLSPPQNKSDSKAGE", "assay": "ELISA, coated LILR protein 100 ng/well"}, "LILRA1": {"molecular_target": "LILRA1 (UniProt O75019 17-461, limits assumed)", "sequence (O75019 17-461 limits assumed)": "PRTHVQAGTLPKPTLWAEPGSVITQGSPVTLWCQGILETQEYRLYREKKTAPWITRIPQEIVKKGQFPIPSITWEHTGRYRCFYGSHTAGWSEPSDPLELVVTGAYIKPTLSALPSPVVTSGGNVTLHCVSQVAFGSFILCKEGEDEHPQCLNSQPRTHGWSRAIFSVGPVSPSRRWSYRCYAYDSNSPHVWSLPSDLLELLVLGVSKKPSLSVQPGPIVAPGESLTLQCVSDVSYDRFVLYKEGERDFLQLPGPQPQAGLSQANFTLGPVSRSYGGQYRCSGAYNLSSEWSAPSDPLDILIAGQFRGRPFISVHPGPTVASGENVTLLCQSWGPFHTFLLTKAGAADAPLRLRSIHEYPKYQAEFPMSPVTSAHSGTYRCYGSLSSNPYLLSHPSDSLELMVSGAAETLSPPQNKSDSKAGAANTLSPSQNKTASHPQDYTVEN", "assay": "ELISA, coated LILR protein 100 ng/well"}, "LILRA2": {"molecular_target": "LILRA2 (UniProt Q8N149 24-449, limits assumed)", "sequence (Q8N149 24-449 limits assumed)": "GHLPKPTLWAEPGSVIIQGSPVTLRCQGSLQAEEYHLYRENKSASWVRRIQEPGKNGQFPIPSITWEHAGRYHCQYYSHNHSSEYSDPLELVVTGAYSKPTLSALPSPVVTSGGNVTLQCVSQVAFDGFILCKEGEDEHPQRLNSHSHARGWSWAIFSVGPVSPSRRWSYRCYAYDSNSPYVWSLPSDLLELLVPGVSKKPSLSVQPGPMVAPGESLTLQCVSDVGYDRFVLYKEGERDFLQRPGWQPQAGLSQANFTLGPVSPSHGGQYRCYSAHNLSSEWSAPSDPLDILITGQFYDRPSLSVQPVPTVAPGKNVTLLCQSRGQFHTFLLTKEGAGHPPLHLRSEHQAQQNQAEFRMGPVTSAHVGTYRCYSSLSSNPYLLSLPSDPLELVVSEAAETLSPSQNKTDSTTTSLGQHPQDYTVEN", "assay": "ELISA, coated LILR protein 100 ng/well"}, "LILRB2": {"molecular_target": "LILRB2 (UniProt Q8N423 22-460, limits assumed)", "sequence (Q8N423 22-460 limits assumed)": "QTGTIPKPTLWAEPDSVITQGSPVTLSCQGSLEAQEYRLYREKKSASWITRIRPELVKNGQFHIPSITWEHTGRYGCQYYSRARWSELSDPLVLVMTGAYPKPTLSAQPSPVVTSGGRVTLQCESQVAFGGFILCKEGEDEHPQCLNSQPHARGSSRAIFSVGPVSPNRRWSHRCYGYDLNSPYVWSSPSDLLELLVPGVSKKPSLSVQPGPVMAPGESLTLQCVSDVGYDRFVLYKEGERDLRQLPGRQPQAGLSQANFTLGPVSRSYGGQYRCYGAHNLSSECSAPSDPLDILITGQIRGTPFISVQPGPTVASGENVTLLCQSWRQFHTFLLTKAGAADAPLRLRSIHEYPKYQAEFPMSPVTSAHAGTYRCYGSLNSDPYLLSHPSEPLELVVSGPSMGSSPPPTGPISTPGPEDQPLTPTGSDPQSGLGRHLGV", "assay": "ELISA, coated LILR protein 100 ng/well"}, "LILRB5": {"molecular_target": "LILRB5 (UniProt O75023 24-458, limits assumed)", "sequence (O75023 24-458 limits assumed)": "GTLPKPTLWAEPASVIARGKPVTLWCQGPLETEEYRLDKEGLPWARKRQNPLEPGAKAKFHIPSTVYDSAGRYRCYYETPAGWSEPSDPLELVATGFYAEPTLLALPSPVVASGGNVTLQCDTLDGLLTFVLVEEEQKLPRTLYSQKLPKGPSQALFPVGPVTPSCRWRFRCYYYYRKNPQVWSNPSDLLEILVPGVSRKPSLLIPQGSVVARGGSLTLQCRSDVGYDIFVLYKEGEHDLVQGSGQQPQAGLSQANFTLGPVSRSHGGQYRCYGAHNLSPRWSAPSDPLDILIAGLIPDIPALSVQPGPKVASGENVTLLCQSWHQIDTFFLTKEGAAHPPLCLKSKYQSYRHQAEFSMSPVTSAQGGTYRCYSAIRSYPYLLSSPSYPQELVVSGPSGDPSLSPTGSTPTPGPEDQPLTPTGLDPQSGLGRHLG", "assay": "ELISA, coated LILR protein 100 ng/well"}, "[2]": {"molecular_target": "T2, LILRB4 on the surface of human monocytic leukemia cells (THP-1) (human, UniProt Q8NHJ6 22-448)", "assay": "cell-based or functional assay"}, "[3]": {"molecular_target": "T2, LILRB4 on the surface of human …", "assay": "flow cytometry competition on THP-1 cells; competitor FITC-labelled ApoE at 0.4 μg/mL"}, "[4]": {"molecular_target": "T2, LILRB4 on the surface of human …", "assay": "flow cytometry on THP-1 cells, FITC goat anti-mouse IgG detection"}},
  "data": [
    {"binder": "ME-Ⅰ anti-LILRB4 monoclonal antibody (mouse IgG1 / Cκ) (antibody, V domains shown, also called 单克隆抗体ME-Ⅰ; ME-Ⅰ抗LILRB4单克隆抗体) VH: EVQLEQSGAEVVKPGASVKLSCKASGYTFISYWMHWVKQRPGQGLEWIGEINPTNGRTNYNEKFKSKATLTVDKSSGTAYMQLSSLTSEDSAVYYCARWGQLGLREGYYAVDYWGQGTSVTVSS VL: DIVLTQSPSSLSASLGDRVTISCRASQDISNYLNWYQQNPNGTVKLLIYYTSRLHSGVPSRFSGSGSGTDYSLTISNLEQEDIATYFCQQGDTLPPTFGGGTKLEIKA", "values": [
      {"measurement": "EC50", "setting": "[1]", "value": 0.375, "unit": "µg/mL"},
      {"measurement": "binding result", "setting": "LILRA5", "value": "no binding (tested: 50μg/mL)"},
      {"measurement": "binding result", "setting": "LILRA6", "value": "no binding (tested: 50μg/mL)"},
      {"measurement": "binding result", "setting": "LILRB1", "value": "no binding (tested: 50μg/mL)"},
      {"measurement": "binding result", "setting": "LILRA4", "value": "no binding (tested: 50μg/mL)"},
      {"measurement": "binding result", "setting": "LILRB3", "value": "no binding (tested: 50μg/mL)"},
      {"measurement": "binding result", "setting": "LILRA3", "value": "no binding (tested: 50μg/mL)"},
      {"measurement": "binding result", "setting": "LILRA1", "value": "no binding (tested: 50μg/mL)"},
      {"measurement": "binding result", "setting": "LILRA2", "value": "no binding (tested: 50μg/mL)"},
      {"measurement": "binding result", "setting": "LILRB2", "value": "no binding (tested: 50μg/mL)"},
      {"measurement": "binding result", "setting": "LILRB5", "value": "no binding (tested: 50μg/mL)"},
      {"measurement": "IC50 of inhibition of ARG1 secretion by THP-1 cells in the presence of ApoE (arginase activity kit)", "setting": "[2]", "value": 330, "unit": "µg/mL"},
      {"measurement": "IC50", "setting": "[3]", "value": 9.69, "unit": "µg/mL"},
      {"measurement": "EC50", "setting": "[4]", "value": 5.48, "unit": "µg/mL"}
    ]}
  ]
}
